According to article PMC4102245, “A molecular model for the role of SYCP3 in meiotic chromosome organisation” (eLife, 2014):

Tests used:
[1] = biological target: SYCP3_(ΔCt6) (human SYCP3 amino acids 1–230) (human) (UniProt Q8IZU3); test: SEC-MALS; Superdex 200 Increase 10/300 GL, 20 mM Tris pH 8.0, 500 mM KCl; oligomer size of the eluted peak
[2] = biological target: SYCP3_(ΔNt6) (full length human SYCP3 with 69-EVQNML-74 mutated to alanines) (human) (UniProt Q8IZU3); test: as above
[3] = biological target: the molecule itself; test: SEC-MALS; Superdex 200 10/300 GL, 100 μl of 2–3 mg/ml, 20 mM Tris pH 8.0, 500 mM KCl, 25°C; oligomer size of the eluted peak
SYCP3 dCt6 WT = biological target: T1, SYCP3 dCt6 WT (human, UniProt Q8IZU3 1-230); test: fluorescence anisotropy; Kd per SYCP3 tetramer; 20 mM Tris pH 8.0, 150 mM KCl; FA at 25 C with 25 nM DNA (0-20 uM protein); EMSA 5 min at 4 C with 18.7 uM (per bp) DNA (0-40 uM protein), 0.5% agarose, 0.5x TBE; details: protein: recombinant; tags: N-terminal His6, TEV-cleaved; chain copies: 4; label: 5' FAM
T1 sequence: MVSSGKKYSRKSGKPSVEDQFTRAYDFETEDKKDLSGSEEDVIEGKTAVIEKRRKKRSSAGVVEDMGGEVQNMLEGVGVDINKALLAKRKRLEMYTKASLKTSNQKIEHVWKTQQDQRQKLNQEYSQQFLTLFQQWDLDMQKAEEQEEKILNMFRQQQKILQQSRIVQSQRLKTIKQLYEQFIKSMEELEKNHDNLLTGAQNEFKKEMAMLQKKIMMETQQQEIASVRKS

[4] = biological target: the molecule itself; test: SEC-MALS; Superdex 200 Increase 10/300 GL, 20 mM Tris pH 8.0, 500 mM KCl; oligomer size of the eluted peak
[5] = biological target: the molecule itself; test: SEC-MALS; Superdex 200 10/300 GL, 100 μl of 2–3 mg/ml, 20 mM Tris pH 8.0, 150 mM KCl, 25°C; oligomer size of the eluted peak

Molecule: SYCP3_(ΔCt6) (human SYCP3 amino acids 1–230) (from UniProt Q8IZU3 1-230) (domain or fragment)
- stoichiometry N [1]: 4

Molecule: SYCP3_(ΔNt6) (full length human SYCP3 with 69-EVQNML-74 mutated to alanines) (from UniProt Q8IZU3 1-236)
- stoichiometry N [2]: 4

B1: SYCP3FL (full length human SYCP3, amino acids 1–236) (natural protein, UniProt Q8IZU3 1-236, looked up)
chain: MVSSGKKYSRKSGKPSVEDQFTRAYDFETEDKKDLSGSEEDVIEGKTAVIEKRRKKRSSAGVVEDMGGEVQNMLEGVGVDINKALLAKRKRLEMYTKASLKTSNQKIEHVWKTQQDQRQKLNQEYSQQFLTLFQQWDLDMQKAEEQEEKILNMFRQQQKILQQSRIVQSQRLKTIKQLYEQFIKSMEELEKNHDNLLTGAQNEFKKEMAMLQKKIMMETQQQEIASVRKSLQSMLF
notes: Synaptonemal complex protein 3 (SYCP3), human, Swissprot Q8IZU3, amino acids 1-236 (full length); The methods tell no TEV cleavage for SYCP3FL (only Ni-NTA and buffer exchange), so the His6 tag may have been kept; the printed theoretical tetramer size is 111 kDa; also called full length SYCP3; source: E. coli BL21(DE3) Rosetta2, purified (Ni-NTA, buffer exchange into 20 mM Tris pH 8.0, 500 mM KCl)
- stoichiometry N [3]: 4

B2: 60 bp FAM-dsDNA (dsDNA)
DNA 1: ATGGTGTGTGTAGGTTAATGTGAGGAGGAGAGGTGAAGAAGGAGGAGAGAAGAAGGAGGC
DNA 2: GCCTCCTTCTTCTCTCCTCCTTCTTCACCTCTCCTCCTCACATTAACCTACACACACCAT
- Kd (SYCP3 dCt6 WT): 200 nM

B3: SYCP3_(ΔCt6) ΔBP1 (amino acids 1–230, BP1 52-KRRKKR-57 mutated to alanines) (domain or fragment, human, UniProt Q8IZU3 1-230, looked up)
chain: MVSSGKKYSRKSGKPSVEDQFTRAYDFETEDKKDLSGSEEDVIEGKTAVIEAAAAAASSAGVVEDMGGEVQNMLEGVGVDINKALLAKRKRLEMYTKASLKTSNQKIEHVWKTQQDQRQKLNQEYSQQFLTLFQQWDLDMQKAEEQEEKILNMFRQQQKILQQSRIVQSQRLKTIKQLYEQFIKSMEELEKNHDNLLTGAQNEFKKEMAMLQKKIMMETQQQEIASVRKS
notes: Synaptonemal complex protein 3 (SYCP3), human, Swissprot Q8IZU3, amino acids 1-230 with basic patch 1 mutated to alanines; source: E. coli BL21(DE3) Rosetta2, purified as described for wild type SYCP3_(ΔCt6); not shown: His6, N-terminal, cleaved
- stoichiometry N [4]: 4

B4: SYCP3_(ΔCt6) ΔBP2 (amino acids 1–230, BP2 88-KRKR-91 mutated to alanines) (domain or fragment, human, UniProt Q8IZU3 1-230, looked up)
chain: MVSSGKKYSRKSGKPSVEDQFTRAYDFETEDKKDLSGSEEDVIEGKTAVIEKRRKKRSSAGVVEDMGGEVQNMLEGVGVDINKALLAAAAALEMYTKASLKTSNQKIEHVWKTQQDQRQKLNQEYSQQFLTLFQQWDLDMQKAEEQEEKILNMFRQQQKILQQSRIVQSQRLKTIKQLYEQFIKSMEELEKNHDNLLTGAQNEFKKEMAMLQKKIMMETQQQEIASVRKS
notes: Synaptonemal complex protein 3 (SYCP3), human, Swissprot Q8IZU3, amino acids 1-230 with basic patch 2 mutated to alanines; source: E. coli BL21(DE3) Rosetta2, purified as described for wild type SYCP3_(ΔCt6); not shown: His6, N-terminal, cleaved
- stoichiometry N [4]: 4

B5: SYCP3_(ΔCt6) ΔBP1+2 (amino acids 1–230, BP1 and BP2 mutated to alanines) (domain or fragment, human, UniProt Q8IZU3 1-230, looked up)
chain: MVSSGKKYSRKSGKPSVEDQFTRAYDFETEDKKDLSGSEEDVIEGKTAVIEAAAAAASSAGVVEDMGGEVQNMLEGVGVDINKALLAAAAALEMYTKASLKTSNQKIEHVWKTQQDQRQKLNQEYSQQFLTLFQQWDLDMQKAEEQEEKILNMFRQQQKILQQSRIVQSQRLKTIKQLYEQFIKSMEELEKNHDNLLTGAQNEFKKEMAMLQKKIMMETQQQEIASVRKS
notes: Synaptonemal complex protein 3 (SYCP3), human, Swissprot Q8IZU3, amino acids 1-230 with both basic patches mutated to alanines; source: E. coli BL21(DE3) Rosetta2, purified as described for wild type SYCP3_(ΔCt6); not shown: His6, N-terminal, cleaved
- stoichiometry N [4]: 4

B6: SYCP3_(Core) (human SYCP3 amino acids 66–230) (domain or fragment, UniProt Q8IZU3 66-230, looked up)
chain: MGGEVQNMLEGVGVDINKALLAKRKRLEMYTKASLKTSNQKIEHVWKTQQDQRQKLNQEYSQQFLTLFQQWDLDMQKAEEQEEKILNMFRQQQKILQQSRIVQSQRLKTIKQLYEQFIKSMEELEKNHDNLLTGAQNEFKKEMAMLQKKIMMETQQQEIASVRKS
notes: Synaptonemal complex protein 3 (SYCP3), human, Swissprot Q8IZU3, amino acids 66-230; Cloned in pHAT4 with an N-terminal TEV-cleavable His6 tag; homotetramer by SEC-MALS, AUC and crystal structure; also called SYCP_(Core); not shown: His6, N-terminal, cleaved
- stoichiometry N [5]: 4
